Data on 1 molecule can be found in PMC9016349, “HOIL‐1 ubiquitin ligase activity targets unbranched glucosaccharides and is required to prevent polyglucosan accumulation” (The EMBO Journal, 2022).

This assay has as its target T1, His‐Halo‐tagged Met1‐linked ubiquitin tetramer (human, UniProt P0CG48 1-76; P0CG48 1-76; P0CG48 1-76; P0CG48 1-76).
T1 construct: ubiquitin (76-residue mature product of the polyubiquitin precursor), repeat 1 of 4, joined head to tail through Met1; ubiquitin (76-residue mature product), repeat 2 of 4; ubiquitin (76-residue mature product), repeat 3 of 4; ubiquitin (76-residue mature product), repeat 4 of 4; Tag end read from the printed name Halo‐M1‐Ub4; Covalently coupled to HaloLink resin through the Halo tag; also called …
Nature of the assay: pull-down; Halo‐tagged M1‐linked tetraubiquitin covalently coupled to HaloLink resin; 10 μl beads with 2 μg bacterially expressed HOIL‐1 protein in 0.5 ml PBS pH 7.4, 0.001% NP‐40, 1 mM TCEP, 0.01 mg/ml BSA, 3.5 h at 4°C; bound protein detected by Coomassie staining. Particulars: both partners purified.

T1 sequence (P0CG48 1-304, one chain of several): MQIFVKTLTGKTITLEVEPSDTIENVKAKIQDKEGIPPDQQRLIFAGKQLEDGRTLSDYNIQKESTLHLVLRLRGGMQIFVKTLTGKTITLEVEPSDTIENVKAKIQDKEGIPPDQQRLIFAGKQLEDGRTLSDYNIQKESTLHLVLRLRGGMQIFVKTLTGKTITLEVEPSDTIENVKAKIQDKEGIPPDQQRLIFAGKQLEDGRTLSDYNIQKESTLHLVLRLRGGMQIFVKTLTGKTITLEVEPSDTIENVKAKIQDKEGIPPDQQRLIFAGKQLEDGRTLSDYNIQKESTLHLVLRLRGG

B1: HOIL‐1 (haem‐oxidised IRP2 ubiquitin ligase‐1), full‐length untagged human, wild type (enzyme, UniProt Q9BYM8 1-510, looked up)
chain: MDEKTKKAEEMALSLTRAVAGGDEQVAMKCAIWLAEQRVPLSVQLKPEVSPTQDIRLWVSVEDAQMHTVTIWLTVRPDMTVASLKDMVFLDYGFPPVLQQWVIGQRLARDQETLHSHGVRQNGDSAYLYLLSARNTSLNPQELQRERQLRMLEDLGFKDLTLQPRGPLEPGPPKPGVPQEPGRGQPDAVPEPPPVGWQCPGCTFINKPTRPGCEMCCRARPEAYQVPASYQPDEEERARLAGEEEALRQYQQRKQQQQEGNYLQHVQLDQRSLVLNTEPAECPVCYSVLAPGEAVVLRECLHTFCRECLQGTIRNSQEAEVSCPFIDNTYSCSGKLLEREIKALLTPEDYQRFLDLGISIAENRSAFSYHCKTPDCKGWCFFEDDVNEFTCPVCFHVNCLLCKAIHEQMNCKEYQEDLALRAQNDVAARQTTEMLKVMLQQGEAMRCPQCQIVVQKKDGCDWIRCTVCHTEICWVTKGPRWGPGGPGDTSGGCRCRVNGIPCHPSCQNCH
notes: HOIL‐1 (RBCK1), human, full length (residues 1-510 by the printed construct limits); Tag end read from the printed name His6‐SUMO‐HOIL‐1; also called RBCK1; wild‐type HOIL‐1; source: E. coli BL21 (DE3), purified (tag removed with Ulp1; size exclusion chromatography or dialysis); not shown: His6, N-terminal, cleaved; SUMO, N-terminal, cleaved
As for B1, the binding result is listed as “binds”.
